± gives the standard deviation of the averaged measurements.
Assay: total protein half-life in vivo (active degradation + dilution); higher = more stable protein
[1] = E. coli NCM3722 delta-hslV, growth: N-lim chemostat, doubling time 6 h
[2] = E. coli NCM3722 delta-smpB, growth: N-lim chemostat, doubling time 6 h
[3] = wild type E. coli NCM3722, growth: C-lim chemostat, doubling time 3 h
[4] = wild type E. coli NCM3722, growth: C-lim chemostat, doubling time 6 h
[5] = wild type E. coli NCM3722, growth: C-lim chemostat, doubling time 12 h
[6] = wild type E. coli NCM3722, growth: N-lim chemostat, doubling time 12 h
[7] = wild type E. coli NCM3722, growth: P-lim chemostat, doubling time 12 h
[8] = E. coli NCM3722 delta-clpP delta-lon delta-hslV, growth: N-lim chemostat, doubling time 6 h
[9] = E. coli NCM3722 delta-clpP, growth: N-lim chemostat, doubling time 6 h
[10] = wild type E. coli NCM3722, growth: N-lim chemostat, doubling time 6 h
[11] = E. coli NCM3722 delta-lon, growth: N-lim chemostat, doubling time 6 h
[12] = wild type E. coli NCM3722, growth: P-lim chemostat, doubling time 6 h

Sequence	total protein half-life in vivo [1]	total protein half-life in vivo [2]	total protein half-life in vivo [3]	total protein half-life in vivo [4]	total protein half-life in vivo [5]	total protein half-life in vivo [6]	total protein half-life in vivo [7]	total protein half-life in vivo [8]	total protein half-life in vivo [9]	total protein half-life in vivo [10]	total protein half-life in vivo [11]	total protein half-life in vivo [12]
MQQSTPYLSFRGIGKTFPGVKALTDISFDCYAGQVHALMGENGAGKSTLLKILSGNYAPTTGSVVINGQEMSFSDTTAALNAGVAIIYQELHLVPEMTVAENIYLGQLPHKGGIVNRSLLNYEAGLQLKHLGMDIDPDTPLKYLSIGQWQMVEIAKALARNAKIIAFDEPTSSLSAREIDNLFRVIRELRKEGRVILYVSHRMEEIFALSDAITVFKDGRYVKTFTDMQQVDHDALVQAMVGRDIGDIYGWQPRSYGEERLRLDAVKAPGVRTPISLAVRSGEIVGLFGLVGAGRSELMKGMFGGTQITAGQVYIDQQPIDIRKPSHAIAAGMMLCPEDRKAEGIIPVHSVRDNINISARRKHVLGGCVINNGWEENNADHHIRSLNIKTPGAEQLIMNLSGGNQQKAILGRWLSEEMKVILLDEPTRGIDVGAKHEIYNVIYALAAQGVAVLFASSDLPEVLGVADRIVVMREGEIAGELLHEQADERQALSLAMPKVSQAVA [P0AAF3]	5.15 h	2.45 ± 0.57 h	2.228 ± 0.021 h	3.922 ± 0.021 h	5.96 ± 0.79 h	6.06 h	10.5 h					
MKLSRISAINWNKISDDKDLEVWNRLTSNFWLPEKVPLSNDIPAWQTLTVVEQQLTMRVFTGLTLLDTLQNVIGAPSLMPDALTPHEEAVLSNISFMEAVHARSYSSIFSTLCQTKDVDAAYAWSEENAPLQRKAQIIQQHYRGDDPLKKKIASVFLESFLFYSGFWLPMYFSSRGKLTNTADLIRLIIRDEAVHGYYIGYKYQKNMEKISLGQREELKSFAFDLLLELYDNELQYTDELYAETPWADDVKAFLCYNANKALMNLGYEPLFPAEMAEVNPAILAALSPNADENHDFFSGSGSSYVMGKAVETEDEDWNF		2.03 h	2.18 ± 0.23 h	3.25 ± 0.41 h	4.27 h		6.6 h	3.43 ± 1.1 h	3.14 ± 0.99 h	1.85 h		
MGGISIWQLLIIAVIVVLLFGTKKLGSIGSDLGASIKGFKKAMSDDEPKQDKTSQDADFTAKTIADKQADTNQEQAKTEDAKRHDKEQV	4.51 ± 0.3 h	4.55 ± 0.22 h	2.93 ± 0.082 h	5.337 ± 0.019 h	9.34 ± 0.37 h	9.53 ± 2.4 h	8.96 ± 0.53 h	4.809 ± 0.026 h	4.72 ± 0.96 h	4.72 ± 0.21 h	4.05 ± 0.54 h	4.41 ± 0.37 h
MALLNVDKLSVHFGDESAPFRAVDRISYSVKQGEVVGIVGESGSGKSVSSLAIMGLIDYPGRVMAEKLEFNGQDLQRISEKERRNLVGAEVAMIFQDPMTSLNPCYTVGFQIMEAIKVHQGGNKSTRRQRAIDLLNQVGIPDPASRLDVYPHQLSGGMSQRVMIAMAIACRPKLLIADEPTTALDVTIQAQIIELLLELQQKENMALVLITHDLALVAEAAHKIIVMYAGQVVETGDAHAIFHAPRHPYTQALLRALPEFAQDKERLASLPGVVPGKYDRPNGCLLNPRCPYATDRCRAEEPALNMLADGRQSKCHYPLDDAGRPTL [P0AAG0]	6.21 ± 0.75 h	6.33 ± 0.16 h	3.12 ± 0.29 h	6.95 ± 0.84 h	12 ± 0.99 h	12.6 ± 0.25 h	13.3 ± 1.2 h	6.72 ± 1.2 h	6.26 ± 0.28 h	5.94 ± 0.23 h	7.31 ± 0.78 h	6.27 ± 0.38 h
MQLTSFTDYGLRALIYMASLPEGRMTSISEVTDVYGVSRNHMVKIINQLSRAGYVTAVRGKNGGIRLGKPASAIRIGDVVRELEPLSLVNCSSEFCHITPACRLKQALSKAVQSFLTELDNYTLADLVEENQPLYKLLLVE [P0AF63]	5.44 ± 0.07 h	5.26 ± 0.17 h	2.93 ± 0.15 h	6.31 ± 1.1 h	8.91 ± 0.3 h	10.2 ± 0.44 h	6.22 ± 0.65 h	7.13 ± 1.1 h	6.69 ± 0.15 h	5.12 ± 0.58 h	5.26 ± 0.19 h	4.03 ± 0.2 h
MFGKLSLDAVPFHEPIVMVTIAGIILGGLALVGLITYFGKWTYLWKEWLTSVDHKRLGIMYIIVAIVMLLRGFADAIMMRSQQALASAGEAGFLPPHHYDQIFTAHGVIMIFFVAMPFVIGLMNLVVPLQIGARDVAFPFLNNLSFWFTVVGVILVNVSLGVGEFAQTGWLAYPPLSGIEYSPGVGVDYWIWSLQLSGIGTTLTGINFFVTILKMRAPGMTMFKMPVFTWASLCANVLIIASFPILTVTVALLTLDRYLGTHFFTNDMGGNMMMYINLIWAWGHPEVYILILPVFGVFSEIAATFSRKRLFGYTSLVWATVCITVLSFIVWLHHFFTMGAGANVNAFFGITTMIIAIPTGVKIFNWLFTMYQGRIVFHSAMLWTIGFIVTFSVGGMTGVLLAVPGADFVLHNSLFLIAHFHNVIIGGVVFGCFAGMTYWWPKAFGFKLNETWGKRAFWFWIIGFFVAFMPLYALGFMGMTRRLSQQIDPQFHTMLMIAASGAVLIALGILCLVIQMYVSIRDRDQNRDLTGDPWGGRTLEWATSSPPPFYNFAVVPHVHERDAFWEMKEKGEAYKKPDHYEEIHMPKNSGAGIVIAAFSTIFGFAMIWHIWWLAIVGFAGMIITWIVKSFDEDVDYYVPVAEIEKLENQHFDEITKAGLKNGN [P0ABI8]	6.89 ± 0.66 h	6.54 ± 0.66 h		5.86 ± 0.97 h	14.5 ± 0.29 h	11.9 ± 0.69 h		6.54 ± 0.5 h		5.84 ± 0.49 h	6.02 ± 0.071 h	6.04 ± 0.13 h
MSSEKLYSPLKVGAITAANRIFMAPLTRLRSIEPGDIPTPLMAEYYRQRASAGLIISEATQISAQAKGYAGAPGIHSPEQIAAWKKITAGVHAENGHMAVQLWHTGRISHASLQPGGQAPVAPSALSAGTRTSLRDENGQAIRVETSMPRALELEEIPGIVNDFRQAIANAREAGFDLVELHSAHGYLLHQFLSPSSNHRTDQYGGSVENRARLVLEVVDAGIEEWGADRIGIRVSPIGTFQNTDNGPNEEADALYLIEQLGKRGIAYLHMSEPDWAGGEPYTDAFREKVRARFHGPIIGAGAYTVEKAETLIGKGLIDAVAFGRDWIANPDLVARLQRKAELNPQRAESFYGGGAEGYTDYPTL	1.51 ± 0.027 h	1.5 ± 0.061 h	2.13 ± 0.48 h	2.98 ± 0.53 h	3.17 ± 0.57 h	2.097 ± 0.015 h	2.85 ± 1.7 h	5.08 ± 0.17 h	2.14 ± 0.038 h	1.66 ± 0.12 h		1.55 ± 0.16 h
